Consider one protein from paper PMC4768246, “A novel cold-adapted and highly salt-tolerant esterase from Alkalibacterium sp. SL3 from the sediment of a soda lake” (Scientific Reports, 2016).

Substrate in the data set: CC(=O)Oc1ccc([N+](=O)[O-])cc1
Put plainly: purified protein. Conditions: 50 mM Tris-HCl pH 9.0, 30 °C, 5 min, 0.05–5 mM substrate. Format: biochemical, Alkalibacterium sp. SL3.

B1: EstSL3 (rEstSL3) (Alkalibacterium sp. SL3) (protein)
chain: MKINKNDTLLFIGDSITDVGRDRMDGEDLGKGFPLMVASHLQSRYPAKRLTVLNRGIGGDSLKDLKRRWEDDCLITNPDIVTLLIGVNDTWRNQNDGVELTDEELDEFESDYRFLLKSLHQRTDARVILMESFVLPYPKRRVGWRNDLDKRIQIVRKMARDYQTELIPLDGLLNAAGIRDGFSYYTGDDGVHPTVAGHGLIANSWLKAVDE
notes: His6-tagged from pET-28a(+) (NcoI-HindIII), E. coli BL21(DE3), Ni-NTA; internal peptides LTVLNRGIGGDSLKDLK, TDARVILMESFVLPYPKR, VGWRNDLDK; catalytic Ser15, Asp189, His192
For the protein B1, the Km – broadly, the concentration of substrate that gives half-maximal velocity – worked out at 150 ± 10 µM; the kcat (commonly the number of substrate molecules converted per active site and unit of time at saturation) was found to be 307.69 s⁻¹.
